Where a chain is given by its changes, count along the chain named. Numbers in names are those of the source.
B1: L424S/Y426V (protein)
chain: MVAATATATAMATAASPLLNGTRIPARLRHRGLSVRCAAVAGGAAEAPASTGARLSADCVVVGGGISGLCTAQALATRHGVGDVLVTEARARPGGNITTVERPEEGYLWEEGPNSFQPSDPVLTMAVDSGLKDDLVFGDPNAPRFVLWEGKLRPVPSKPADLPFFDLMSIPGKLRAGLGALGIRPPPPGREESVEEFVRRNLGAEVFERLIEPFCSGVYAGDPSKLSMKAAFGKVWRLEETGGSIIGGTIKTIQERSKNPKPPRDARLPKPKGQTVASFRKGLAMLPNAITSSLGSKVKLLWKLTSITKSDDKGYVLEYETPEGVVSVQAKSVIMTIPSYVASNILRPLSSDAADALSRFYYPPVAAVTVSYPKEAIRKECLIDGELQGFGQLHPRSQGVETLGTIYSSSLFPNRAPDGRVLLSNVIGGATNTGIVSKTESELVEAVDRDLRKMLINSTAVDPLVLGVRVWPQAIPQFLVGHLDLLEAAKAALDRGGYDGLFLGGNYVAGVALGRCVEGAYESASQISDFLTKYAYK
modifications: Amino-acid sequence of PPO1 form corn mutant (ZmPPO1 L424S/Y426V)
B2: ZmPPO1 L424W/Y426L: Amino-acid sequence of PPO1 from corn mutant (protein)
chain: B1 chain with S424W, V426L
modifications: Amino-acid sequence of PPO1 from corn mutant (ZmPPO1 L424W/Y426L)
B3: L424V/Y426L (protein)
chain: B1 chain with S424V, V426L
modifications: Amino-acid sequence of PPO1 from corn mutant (ZmPPO1 L424V/Y426L)
B4: L423I (protein)
chain: MAAAAAAMATATSATAAPPLRIRDAARRTRRRGHVRCAVASGAAEAPAAPGARVSADCVVVGGGISGLCTAQALATKHGVGDVLVTEARARPGGNITTAERAGEGYLWEEGPNSFQPSDPVLTMAVDSGLKDDLVFGDPNAPRFVLWEGKLRPVPSKPGDLPFFDLMSIPGKLRAGLGALGVRAPPPGREESVEDFVRRNLGAEVFERLIEPFCSGVYAGDPSKLSMKAAFGKVWRLEDTGGSIIGGTIKTIQERGKNPKPPRDPRLPTPKGQTVASFRKGLTMLPDAITSRLGSKVKLSWKLTSITKSDNKGYALVYETPEGVVSVQAKTVVMTIPSYVASDILRPLSSDAADALSIFYYPPVAAVTVSYPKEAIRKECLIDGELQGFGQLHPRSQGVETLGTIYSSSLFPNRAPAGRVLLINYIGGSTNTGIVSKTESELVEAVDRDLRKMLINPKAVDPLVLGVRVWPQAIPQFLIGHLDHLEAAKSALGKGGYDGLFLGGNYVAGVALGRCVEGAYESASQISDYLTKYAYK
modifications: Amino-acid sequence of PPO1 from rice mutant (OsPPO1 L423I)
B5: OsPPO1 WT: Amino-acid sequence of PPO1 from wild-type rice (protein)
chain: B4 chain with I423L
modifications: Amino-acid sequence of PPO1 from wild-type rice (OsPPO1 WT)
B6: Y425I: Amino-acid sequence of PPO1 from rice mutant (protein)
chain: B4 chain with I423L, Y425I
modifications: Amino-acid sequence of PPO1 from rice mutant (OsPPO1 Y425I)

Columns and labels:
[1] = test system: PPO-deficient Escherichia coli (ΔhemG); assay: PPO-deficient E. coli (ΔhemG) transformed by corn ZmPPO1 mutant genes, growth on LB medium containing compound A; format: cell-based; conditions: compound A 5 μM
Method: To verify whether the mutation of the PPO1-conserved protein motif LLLNYI in other plants could also confer resistance to herbicides, the mutation combination of leucine residues at the third position and tyrosine residues at the fifth position in the protein motif LLLNYI was carried out by using the same method as described in the above examples and screened by using of the LB medium containing herbicidal compound A, and the growth inhibition was observed.

Arabidopsis thaliana = assay: Herbicide resistance test of Arabidopsis thaliana seeds overexpressing crop PPO1 WT or mutant on MS medium; format: in vivo; conditions: overexpressed in Arabidopsis thaliana seed
Method: 1) Sowing: plump and vernalized wild-type Arabidopsis thaliana seeds were selected, treated with 75% alcohol for 1 minute, disinfected with 10% NaClO for 6 minutes, and washed with sterile water for 5 to 6 times. After the sterilization was completed, the seeds were placed on a MS medium plate for one week, then transplanted to sterilized nutrient soil (nutrient soil:vermiculite=1:1) and cultured in a greenhouse at (25±2) ° C. with a photoperiod of 16 h/8 h (light/dark).
4) Infestation of Arabidopsis thaliana inflorescences: the uninfected Arabidopsis thaliana with good growth state and lush inflorescences were selected for infection and their fruit pods were cut off from the plants by scissors prior to transformation. The Arabidopsis thaliana inflorescences were dipped in the prepared infection solution for 0.5 to 1 minute. Then the infected Arabidopsis thaliana seedlings were placed in dark and humid conditions for 24 hours. After one week, the infection was repeated.
After the transformation of dipped Arabidopsis thaliana inflorescences, Arabidopsis thaliana TO-generation seeds were collected and sowed on a resistant MS plate containing 30 mg/L hygromycin to screen positive plants.
The obtained overexpressed mutant and wild-type Arabidopsis thaliana seeds of different crops were tested for resistance on a MS medium (petri dish) containing different concentrations of PPO-inhibiting herbicidal compounds, as shown in FIG. 12-23.

[2] = test system: PPO-deficient Escherichia coli (ΔhemG); assay: PPO-deficient E. coli (ΔhemG) transformed by rice OsPPO1 mutant genes, growth on LB medium containing herbicide; conditions: 500 nM compound A
[3] = test system: Huaidao No. 5 rice seedlings; format: in vivo
Method: Rice seeds were peeled, washed with sterile water as many times as needed until the washing water became clear. Then the seeds were disinfected with 70% alcohol for 30 seconds and then with 5% sodium hypochlorite. The seeds were cultivated in a horizontal shaker for 20 minutes, disinfected with sodium hypochlorite and washed with sterile water for 5 times, placed on a sterile absorbent paper to air-dry the surface moisture of the seeds, and inoculated in an induction medium to cultivate the callus at 28° C. • 4) Infection of rice callus with Agrobacterium: the Huaidao No. 5 callus with a diameter of 3 mm was selected for sub-cultivation for 10 days and the callus was collected into a 50 ml centrifuge tube. […]

OsPPO1 = assay: In vitro enzyme activity test of OsPPO1 proteins (fluorescence, substrate protoporphyrinogen); format: biochemical, rice; conditions: enzyme 500 nM, protoporphyrinogen 0.125-16 μM, excitation 410 nm, detection 630 nm
Method: Protoporphyrinogen, a substrate catalyzed by PPO, was prepared by reducing protoporphyrin with sodium amalgam. 10 mg of protoporphyrin was dissolved in 10 mL solvent, added with 20% sodium amalgam at the rate of 0.2 g/mL, reacted for 2 hours, then filtered under the protection of nitrogen in dark place. After the reaction was completed, the reaction solution should become achromatic or light brown. The reaction solution was diluted by adding with reaction buffer (100 mM Tris-HCl, 1 mM EDTA, 5 mM DTT, 0.1% Tween 20/80), and 10% hydrochloric acid was used to adjust pH to about 8.0. […]
3) The constructed fusion expression vector pET28a-MBP-OsPPO1 was transferred into E. coli BL21 (DE3), subjected to induced-expression with 0.5 mM IPTG, then purified with the Ni-NTA column, afterwards subjected to thrombin digestion, dialysed, and purified secondly by dextrin-column and Ni-column. […] The collected strains were re-suspended with the Ni-buffer A (50 mM Tris pH 8.0, 500 mM NaCl, 50 mM imidazole), homogenized by high pressure cell homogenizer, and centrifuged at 4000×g at 4° C. for 30 minutes; the supernatant was purified with the Ni column, then the purity thereof was detected by SDS-PAGE. The thrombin enzyme was added according to the quantity of proteins, dialyzed with 50 mM Tris pH 8.0, 500 mM NaCl, 1 mM DTT buffer. […]

[4] = different concentrations of compound A
[5] = different concentrations of flumioxazin
[6] = different concentrations of saflufenacil

Row | Molecule | growth of ΔhemG transformant on plates containing compound A, compared with ZmPPO1-WT [1] | tolerance to compound A compared with wild-type Arabidopsis thaliana (Arabidopsis thaliana; [4]) | tolerance to flumioxazin compared with wild-type Arabidopsis thaliana (Arabidopsis thaliana; [5]) | tolerance to saflufenacil compared with wild-type Arabidopsis thaliana (Arabidopsis thaliana; [6]) | growth of ΔhemG transformant on LB medium containing compound A, compared with the wild type [2] | other results
1 | B1 | grew normally without an inhibition |  |  |  |  | 
2 | B2 | grew normally without an inhibition | certain level of tolerance | certain level of tolerance | certain level of tolerance |  | tolerance to compound A compared with the overexpressed wild-type PPO1 (Arabidopsis thaliana; [4]): much higher; tolerance to flumioxazin compared with the overexpressed wild-type PPO1 (Arabidopsis thaliana; [5]): much higher; tolerance to saflufenacil compared with the overexpressed wild-type PPO1 (Arabidopsis thaliana; [6]): much higher
3 | B3 | grew normally without an inhibition |  |  |  |  | 
4 | B4 |  |  |  |  | grew normally | 
5 | B5 |  | certain level of tolerance | certain level of tolerance | certain level of tolerance |  | tolerance/resistance to compound A compared with wild-type Huaidao No. 5 ([3]; T0 generation rice seedlings, compound A sprayed): certain level of tolerance/resistance; resistance compared with the wild-type control ([3]; compound A 135 g/ha and 270 g/ha): showed no difference
6 | B6 |  |  |  |  | grew normally | enzyme activity relative to WT (OsPPO1): lower than WT
